# Experimental data published in patent US20110158985A1 (published 2011).
# “And” between values parts separate entries of the source, which are not always exact repeats. Identical values can stand only once. Like-named read-outs stand apart in the source and are kept apart here.
# T1: murine FcRn (mouse, UniProt P01887 21-119)
# T1 construct: also called mouse FcRn; muFcRn
# T1 sequence: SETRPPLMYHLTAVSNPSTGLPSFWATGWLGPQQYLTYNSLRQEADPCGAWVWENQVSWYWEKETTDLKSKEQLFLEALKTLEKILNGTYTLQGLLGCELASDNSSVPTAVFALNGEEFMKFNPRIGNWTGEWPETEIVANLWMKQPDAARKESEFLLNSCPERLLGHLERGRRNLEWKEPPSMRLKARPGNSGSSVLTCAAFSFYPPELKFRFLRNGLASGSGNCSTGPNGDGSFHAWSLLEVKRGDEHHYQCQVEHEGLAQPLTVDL
# T1 sequence (b2m): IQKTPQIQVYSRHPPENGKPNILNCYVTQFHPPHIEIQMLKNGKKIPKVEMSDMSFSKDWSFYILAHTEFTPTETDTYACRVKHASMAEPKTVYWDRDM
# T2: RSV F glycoprotein (NUF4) (respiratory syncytial virus)
# T2 chain 1: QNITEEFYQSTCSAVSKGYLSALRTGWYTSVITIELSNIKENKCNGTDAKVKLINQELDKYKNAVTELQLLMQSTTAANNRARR
# T2 chain 2: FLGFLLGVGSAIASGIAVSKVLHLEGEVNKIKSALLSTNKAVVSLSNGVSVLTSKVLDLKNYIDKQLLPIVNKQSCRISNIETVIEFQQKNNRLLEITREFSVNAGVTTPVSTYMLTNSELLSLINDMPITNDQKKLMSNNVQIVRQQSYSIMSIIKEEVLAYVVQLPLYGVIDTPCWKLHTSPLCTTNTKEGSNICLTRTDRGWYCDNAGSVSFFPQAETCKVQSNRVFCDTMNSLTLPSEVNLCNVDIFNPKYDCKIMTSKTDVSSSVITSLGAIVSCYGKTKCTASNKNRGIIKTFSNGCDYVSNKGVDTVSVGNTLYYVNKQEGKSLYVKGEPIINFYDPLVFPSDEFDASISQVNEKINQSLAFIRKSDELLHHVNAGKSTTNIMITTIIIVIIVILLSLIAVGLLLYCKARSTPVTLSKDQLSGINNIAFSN
# B1: human IgG1 MEDI-493 (palivizumab) H433K/N434F/Y436H (antibody)
# heavy: QVTLRESGPALVKPTQTLTLTCTFSGFSLSTSGMSVGWIRQPPGKALEWLADIWWDDKKDYNPSLKSRLTISKDTSKNQVVLKVTNMDPADTATYYCARSMITNWYFDVWGAGTTVTVSSASTKGPSVFPLAPSSKSTSGGTAALGCLVKDYFPEPVTVSWNSGALTSGVHTFPAVLQSSGLYSLSSVVTVPSSSLGTQTYICNVNHKPSNTKVDKRVEPKSCDKTHTCPPCPAPELLGGPSVFLFPPKPKDTLMISRTPEVTCVVVDVSHEDPEVKFNWYVDGVEVHNAKTKPREEQYNSTYRVVSVLTVLHQDWLNGKEYKCKVSNKALPAPIEKTISKAKGQPREPQVYTLPPSREEMTKNQVSLTCLVKGFYPSDIAVEWESNGQPENNYKTTPPVLDSDGSFFLYSKLTVDKSRWQQGNVFSCSVMHEALKFHHTQKSLSLSPGK
# light: DIQMTQSPSTLSASVGDRVTITCKCQLSVGYMHWYQQKPGKAPKLLIYDTSKLASGVPSRFSGSGSGTEFTLTISSLQPDDFATYYCFQGSGYPFTFGGGTKLEIKRTVAAPSVFIFPPSDEQLKSGTASVVCLLNNFYPREAKVQWKVDNALQSGNSQESVTEQDSKDSTYSLSSTLTLSKADYEKHKVYACEVTHQGLSSPVTKSFNRGEC
# B2: human IgG1 MEDI-493 (palivizumab) M252W (antibody)
# heavy: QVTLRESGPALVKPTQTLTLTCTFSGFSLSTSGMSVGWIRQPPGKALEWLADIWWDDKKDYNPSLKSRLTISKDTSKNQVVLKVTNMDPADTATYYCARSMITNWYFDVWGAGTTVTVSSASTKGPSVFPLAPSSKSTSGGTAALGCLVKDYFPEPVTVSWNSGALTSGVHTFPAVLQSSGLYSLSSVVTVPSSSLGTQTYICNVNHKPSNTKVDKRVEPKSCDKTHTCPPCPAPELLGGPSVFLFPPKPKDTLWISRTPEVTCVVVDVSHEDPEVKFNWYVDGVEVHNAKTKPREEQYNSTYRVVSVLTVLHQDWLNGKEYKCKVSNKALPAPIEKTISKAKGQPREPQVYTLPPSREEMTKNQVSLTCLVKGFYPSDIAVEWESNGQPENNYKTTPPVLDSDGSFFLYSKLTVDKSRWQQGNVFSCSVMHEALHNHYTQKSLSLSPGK
# light: DIQMTQSPSTLSASVGDRVTITCKCQLSVGYMHWYQQKPGKAPKLLIYDTSKLASGVPSRFSGSGSGTEFTLTISSLQPDDFATYYCFQGSGYPFTFGGGTKLEIKRTVAAPSVFIFPPSDEQLKSGTASVVCLLNNFYPREAKVQWKVDNALQSGNSQESVTEQDSKDSTYSLSSTLTLSKADYEKHKVYACEVTHQGLSSPVTKSFNRGEC
# B3: human IgG1 MEDI-493 (palivizumab) M252Y/T256Q (antibody)
# heavy: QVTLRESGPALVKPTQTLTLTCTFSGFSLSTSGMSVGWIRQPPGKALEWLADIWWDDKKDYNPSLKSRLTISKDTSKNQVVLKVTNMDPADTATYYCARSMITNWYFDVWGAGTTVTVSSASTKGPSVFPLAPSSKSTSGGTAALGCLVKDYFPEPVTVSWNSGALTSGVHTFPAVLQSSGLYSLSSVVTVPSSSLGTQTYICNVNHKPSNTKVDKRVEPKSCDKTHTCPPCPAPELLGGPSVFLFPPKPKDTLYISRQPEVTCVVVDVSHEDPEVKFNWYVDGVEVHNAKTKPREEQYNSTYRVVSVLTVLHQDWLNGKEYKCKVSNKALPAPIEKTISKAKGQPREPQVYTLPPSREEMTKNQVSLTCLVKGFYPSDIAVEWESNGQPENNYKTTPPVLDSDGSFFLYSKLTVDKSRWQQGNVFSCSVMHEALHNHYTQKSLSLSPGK
# light: DIQMTQSPSTLSASVGDRVTITCKCQLSVGYMHWYQQKPGKAPKLLIYDTSKLASGVPSRFSGSGSGTEFTLTISSLQPDDFATYYCFQGSGYPFTFGGGTKLEIKRTVAAPSVFIFPPSDEQLKSGTASVVCLLNNFYPREAKVQWKVDNALQSGNSQESVTEQDSKDSTYSLSSTLTLSKADYEKHKVYACEVTHQGLSSPVTKSFNRGEC
# B4: human IgG1 MEDI-493 (palivizumab) N434F/Y436H (antibody)
# heavy: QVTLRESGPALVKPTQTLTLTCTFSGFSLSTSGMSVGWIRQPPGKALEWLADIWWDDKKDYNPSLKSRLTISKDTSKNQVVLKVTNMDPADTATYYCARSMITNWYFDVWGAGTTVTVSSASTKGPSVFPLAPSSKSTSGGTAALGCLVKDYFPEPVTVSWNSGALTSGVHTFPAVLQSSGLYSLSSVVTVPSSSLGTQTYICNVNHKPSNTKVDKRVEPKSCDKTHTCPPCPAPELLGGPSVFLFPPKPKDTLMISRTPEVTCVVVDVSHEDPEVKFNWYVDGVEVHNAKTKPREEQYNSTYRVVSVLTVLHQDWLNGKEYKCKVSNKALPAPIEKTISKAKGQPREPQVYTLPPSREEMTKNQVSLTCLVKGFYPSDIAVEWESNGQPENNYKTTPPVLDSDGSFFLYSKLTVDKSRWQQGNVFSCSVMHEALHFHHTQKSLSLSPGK
# light: DIQMTQSPSTLSASVGDRVTITCKCQLSVGYMHWYQQKPGKAPKLLIYDTSKLASGVPSRFSGSGSGTEFTLTISSLQPDDFATYYCFQGSGYPFTFGGGTKLEIKRTVAAPSVFIFPPSDEQLKSGTASVVCLLNNFYPREAKVQWKVDNALQSGNSQESVTEQDSKDSTYSLSSTLTLSKADYEKHKVYACEVTHQGLSSPVTKSFNRGEC
# B5: P12f2 IgG (antibody, V domains shown)
# VH: QVTLRESGPALVKPTQTLTLTCTFSGFSLSTPGMSVGWIRQPPGKALEWLADIWWDDKKHYNPSLKDRLTISKDTSKNQVVLKVTNMDPADTATYYCARDMIFNFYFDVWGQGTTVTVSS
# VL: DIQMTQSPSTLSASVGDRVTITCSLSSRVGYMHWYQQKPGKAPKLLIYDTFYLSSGVPSRFSGSGSGTEFTLTISSLQPDDFATYYCFQGSGYPFTFGGGTKVEIKR
# B6: P12f4 IgG (antibody, V domains shown)
# VH: QVTLRESGPALVKPTQTLTLTCTFSGFSLSTPGMSVGWIRQPPGKALEWLADIWWDGKKHYNPSLKDRLTISKDTSKNQVVLKVTNMDPADTATYYCARDMIFNFYFDVWGQGTTVTVSS
# VL: DIQMTQSPSTLSASVGDRVTITCSLSSRVGYMHWYQQKPGKAPKLLIYDTRGLPSGVPSRFSGSGSGTEFTLTISSLQPDDFATYYCFQGSGYPFTFGGGTKVEIKR
# B7: S32A Fab (Fab, name in Kabat numbering, V domains shown)
# VH: QVTLRESGPALVKPTQTLTLTCTFSGFSLSTAGMSVGWIRQPPGKALEWLADIWWDDKKDYNPSLKSRLTISKDTSKNQVVLKVTNMDPADTATYYCARSMITNWYFDVWGQGTTVTVSS
# VL: DIQMTQSPSTLSASVGDRVTITCSASSSVGYMHWYQQKPGKAPKLLIYDTSKLASGVPSRFSGSGSGTEFTLTISSLQPDDFATYYCFQGSGYPFTFGGGTKVEIK
# B8: A17f5 Fab (Fab, V domains shown)
# VH: QVTLRESGPALVKPTQTLTLTCTFSGFSLSTAGMSVGWIRQPPGKALEWLADIWWDDKKDYNPSLKDRLTISKDTSKNQVVLKVTNMDPADTATYYCARDMIFNWYFDVWGQGTTVTVSS
# VL: DIQMTQSPSTLSASVGDRVTITCSLSSRVGYMHWYQQKPGKAPKLLIYDTFRHTSGVPSRFSGSGSGTEFTLTISSLQPDDFATYYCFQGSGYPFTFGGGTKVEIK
# B9: AFFG Fab (Fab, name in Kabat numbering, V domains shown)
# VH: QVTLRESGPALVKPTQTLTLTCTFSGFSLSTAGMSVGWIRQPPGKALEWLADIWWDDKKDYNPSLKSRLTISKDTSKNQVVLKVTNMDPADTATYYCARSMITNFYFDVWGQGTTVTVSS
# VL: DIQMTQSPSTLSASVGDRVTITCSASSSVGYMHWYQQKPGKAPKLLIYDTFKLASGVPSRFSGSGSGTEFTLTISSLQPDDFATYYCFQGSGYPFTFGGGTKVEIK
# B10: AFFY Fab (Fab, name in Kabat numbering, V domains shown)
# VH: QVTLRESGPALVKPTQTLTLTCTFSGFSLSTAGMSVGWIRQPPGKALEWLADIWWDDKKDYNPSLKSRLTISKDTSKNQVVLKVTNMDPADTATYYCARSMITNFYFDVWGQGTTVTVSS
# VL: DIQMTQSPSTLSASVGDRVTITCSASSSVGYMHWYQQKPGKAPKLLIYDTFKLASGVPSRFSGSGSGTEFTLTISSLQPDDFATYYCFQGSYYPFTFGGGTKVEIK
# B11: PFFF Fab (Fab, name in Kabat numbering, V domains shown)
# VH: QVTLRESGPALVKPTQTLTLTCTFSGFSLSTPGMSVGWIRQPPGKALEWLADIWWDDKKDYNPSLKSRLTISKDTSKNQVVLKVTNMDPADTATYYCARSMITNFYFDVWGQGTTVTVSS
# VL: DIQMTQSPSTLSASVGDRVTITCSASSSVGYMHWYQQKPGKAPKLLIYDTFKLASGVPSRFSGSGSGTEFTLTISSLQPDDFATYYCFQGSFYPFTFGGGTKVEIK
# How the values were obtained:
# [1] = target: T1, murine FcRn; test: SPR (BIAcore 3000), FcRn over immobilised IgG1, pH 6.0, Scatchard
# Method: IgG1 variants was monitored by surface plasmon resonance detection using a BIAcore 3000 instrument (Pharmacia Biosensor, Uppsala, Sweden). […] The protein concentrations ranged from 3-5 μg/ml in 10 mM sodium acetate, pH 5.0. The activation period was set for 7 minutes at a flow rate of 10 μl/min and the immobilization period was set to between 10 and 20 minutes at a flow rate of 10 μl/min. […] Human and murine FcRn were buffer exchanged against 50 mM PBS buffer pH 6.0 containing 0.05% Tween 20. Dilutions were made in the same buffer. All binding experiments were performed at 25° C. with concentrations ranging from 120 to 1 μg/ml at a flow rate of 5 to 10 μl/min; data were collected for 25 to 50 minutes and three 1-minute pulses of PBS buffer pH 7.2 were used to regenerate the surfaces. FcRn was also flowed over an uncoated cell and the sensorgrams from these blank runs subtracted from those obtained with IgG1-coupled chips. Runs were analyzed using the software BIAevaluation 3.1 (Pharmacia). Association constants (KAs) were determined from Scatchard analysis by measuring the concentration of free reactants and complex at equilibrium after correction for nonspecific binding.
# [2] = target: T3, F protein of RSV (Long strain) (RSV (Long strain), UniProt P12568 26-574); test: cell-based or functional assay
# Target sequence in this assay (P12568 26-574): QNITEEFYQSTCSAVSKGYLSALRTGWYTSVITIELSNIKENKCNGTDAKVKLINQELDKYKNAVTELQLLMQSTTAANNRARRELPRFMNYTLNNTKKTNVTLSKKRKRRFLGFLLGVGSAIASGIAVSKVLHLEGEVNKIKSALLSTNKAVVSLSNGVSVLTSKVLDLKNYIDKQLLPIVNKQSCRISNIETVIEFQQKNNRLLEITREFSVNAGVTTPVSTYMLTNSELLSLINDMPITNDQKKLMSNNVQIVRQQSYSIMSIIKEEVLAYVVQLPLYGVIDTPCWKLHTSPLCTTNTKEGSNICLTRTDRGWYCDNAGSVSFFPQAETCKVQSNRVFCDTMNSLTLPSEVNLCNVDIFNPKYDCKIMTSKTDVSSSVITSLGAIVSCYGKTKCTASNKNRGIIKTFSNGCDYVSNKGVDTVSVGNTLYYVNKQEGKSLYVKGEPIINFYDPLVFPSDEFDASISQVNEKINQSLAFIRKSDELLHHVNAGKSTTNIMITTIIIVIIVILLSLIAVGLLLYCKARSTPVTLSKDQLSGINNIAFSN
# [3] = target: T3, F protein of RSV (Long strain); test: cell-based or functional assay; remark: listed apart in the source
# [4] = target: T2, RSV F glycoprotein (NUF4); test: SPR (BIAcore), mAb vs NUF4 (1:1)
# [5] = target: T2, RSV F glycoprotein (NUF4); test: SPR (BIAcore), mAb vs NUF4 (2:1)
# [6] = target: Bac-F (respiratory syncytial virus); test: SPR (BIAcore), mAb vs Bac-F (1:1)
# [7] = target: T4, recombinant C-terminally truncated RSV (A2 strain) F protein (RSV (A2 strain), UniProt P03420 26-524); test: SPR (BIAcore), IgG over immobilised F
# T4 construct: extracellular domain; also called truncated F protein; extracellular domain of the F protein from RSV A2
# [8] = target: T3, F protein of RSV (Long strain); test: cell-based or functional assay; remark: listed apart in the source
# [9] = target: T4, recombinant C-terminally truncated RSV …; test: SPR (BIAcore), Fab over immobilised F
# Target sequence in this assay (P03420 137-524): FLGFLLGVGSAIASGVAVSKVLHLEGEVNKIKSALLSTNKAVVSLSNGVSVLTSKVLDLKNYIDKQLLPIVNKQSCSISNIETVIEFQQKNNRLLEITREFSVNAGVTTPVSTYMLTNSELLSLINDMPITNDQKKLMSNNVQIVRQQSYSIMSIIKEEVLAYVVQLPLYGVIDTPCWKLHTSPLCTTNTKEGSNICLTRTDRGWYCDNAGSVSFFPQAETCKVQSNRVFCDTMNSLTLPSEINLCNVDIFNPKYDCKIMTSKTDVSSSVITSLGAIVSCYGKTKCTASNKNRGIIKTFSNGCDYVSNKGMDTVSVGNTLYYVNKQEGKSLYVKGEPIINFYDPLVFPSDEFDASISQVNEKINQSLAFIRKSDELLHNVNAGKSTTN
# [10] = target: T4, recombinant C-terminally truncated RSV …; test: SPR (BIAcore), Fab over immobilised F; remark: listed apart in the source
# [11] = target: T4, recombinant C-terminally truncated RSV …; test: SPR (BIAcore), Fab over immobilised F; remark: listed apart in the source
# Target sequence in this assay (P03420 26-109, chain 1 of 2): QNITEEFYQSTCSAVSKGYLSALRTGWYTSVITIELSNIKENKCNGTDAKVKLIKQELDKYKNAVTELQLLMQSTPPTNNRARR
# Target sequence in this assay (P03420 137-524, chain 2 of 2): as the sequence (P03420 137-524) above
# Chain of Bac-F (respiratory syncytial virus) (P03420 26-524): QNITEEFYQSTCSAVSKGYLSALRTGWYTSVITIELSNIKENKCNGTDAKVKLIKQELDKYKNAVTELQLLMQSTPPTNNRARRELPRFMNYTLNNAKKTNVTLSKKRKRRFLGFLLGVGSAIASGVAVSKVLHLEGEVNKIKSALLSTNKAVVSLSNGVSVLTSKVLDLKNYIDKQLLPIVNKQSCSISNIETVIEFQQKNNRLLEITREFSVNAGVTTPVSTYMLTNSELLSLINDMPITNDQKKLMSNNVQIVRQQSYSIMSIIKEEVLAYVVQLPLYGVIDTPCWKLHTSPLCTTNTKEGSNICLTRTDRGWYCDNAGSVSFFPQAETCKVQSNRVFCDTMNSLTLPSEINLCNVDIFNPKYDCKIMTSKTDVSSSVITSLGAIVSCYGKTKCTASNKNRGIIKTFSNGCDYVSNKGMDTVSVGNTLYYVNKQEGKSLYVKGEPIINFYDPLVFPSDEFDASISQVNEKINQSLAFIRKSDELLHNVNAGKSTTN
binder,measurement,setting,value
B1,Kd,[1],14 nM
same,ΔΔG,[1],7.53 kJ/mol
B2,Kd,[1],30 nM
same,ΔΔG,[1],5.44 kJ/mol
B3,Kd,[1],39 nM
same,ΔΔG,[1],4.6 kJ/mol
B4,Kd,[1],9 nM
same,ΔΔG,[1],8.37 kJ/mol
B5,Mean IC50 (Control),[2],0.0223 mg/L
same,Mean IC50 (Curve),[2],0.0231 mg/L
same,"Microneutralization IC50, IgG",[3],0.0231 µg/ml and 0.15 nM
same,Kd,[4],0.33 nM
same,fold in parentheses (palivizumab = 1),[4],26 fold
same,koff,[4],0.000178 s⁻¹
same,kon,[4],541000 M⁻¹ s⁻¹
same,Kd,[5],0.84 nM
same,fold in parentheses (palivizumab = 1),[5],371 fold
same,koff,[5],0.000236 s⁻¹
same,kon,[5],282000 M⁻¹ s⁻¹
same,Kd,[6],0.31 nM
same,fold in parentheses (palivizumab = 1),[6],13 fold
same,Kd,[7],0.314 nM
same,koff,[7],0.000128 s⁻¹
same,kon,[7],407000 M⁻¹ s⁻¹
B6,Mean IC50 (Control),[2],0.0235 mg/L
same,Mean IC50 (Curve),[2],0.0242 mg/L
same,"Microneutralization IC50, IgG",[3],0.242 µg/ml and 0.16 nM
same,Kd,[4],0.24 nM
same,fold in parentheses (palivizumab = 1),[4],36 fold
same,koff,[4],0.000229 s⁻¹
same,kon,[4],943000 M⁻¹ s⁻¹
same,Kd,[5],2.33 nM
same,fold in parentheses (palivizumab = 1),[5],134 fold
same,koff,[5],0.000636 s⁻¹
same,kon,[5],273000 M⁻¹ s⁻¹
same,Kd,[6],0.11 nM
same,fold in parentheses (palivizumab = 1),[6],35 fold
same,Kd,[7],0.112 nM
same,koff,[7],5.55e-05 s⁻¹
same,kon,[7],495000 M⁻¹ s⁻¹
B7,"Microneutralization IC50, Fab",[8],4.85 µg/ml and 97 nM
same,fold improvement in affinity over 493L1FR Fab,[9],3 to 7 fold
same,Kd,[10],0.47 nM
same,koff,[10],9.3e-05 s⁻¹
same,kon,[10],196000 M⁻¹ s⁻¹
B8,"Microneutralization IC50, Fab",[3],0.106 µg/ml and 2.12 nM
same,fold improvement in koff (against palivizumab Fab),[9],8 fold
same,fold increase in kon over W100F,[9],3 fold
same,Kd,[11],0.154 nM
same,koff,[11],8.4e-05 s⁻¹
same,kon,[11],544000 M⁻¹ s⁻¹
B9,"Microneutralization IC50, Fab",[8],0.249 µg/ml and 4.98 nM
same,fold higher affinity than palivizumab Fab,[9],> 117 fold
same,Kd,[10],≤ 0.038 nM
same,koff,[10],≤ 5e-06 s⁻¹
same,kon,[10],133000 M⁻¹ s⁻¹
B10,"Microneutralization IC50, Fab",[8],0.0754 µg/ml and 1.51 nM
same,fold higher affinity than palivizumab Fab,[9],> 117 fold
same,Kd,[10],≤ 0.041 nM
same,koff,[10],≤ 5e-06 s⁻¹
same,kon,[10],122000 M⁻¹ s⁻¹
B11,fold higher affinity than palivizumab Fab,[9],> 117 fold
same,Kd,[10],≤ 0.045 nM
same,koff,[10],≤ 5e-06 s⁻¹
same,kon,[10],110000 M⁻¹ s⁻¹
